The experiment concerns the target human CD63 (human) (UniProt P08962). Put plainly: flow cytometry, HEK293 cells endogenously expressing human CD63. Background: Flow cytometry measures light scatter and fluorescence of single cells or particles in a stream.

Our source for the HEK293 (S/N), MFI of antibody over wells with no antibody values is patent US20250171520A1.

Sequence of human CD63 (human) (P08962 2-238 limits assumed): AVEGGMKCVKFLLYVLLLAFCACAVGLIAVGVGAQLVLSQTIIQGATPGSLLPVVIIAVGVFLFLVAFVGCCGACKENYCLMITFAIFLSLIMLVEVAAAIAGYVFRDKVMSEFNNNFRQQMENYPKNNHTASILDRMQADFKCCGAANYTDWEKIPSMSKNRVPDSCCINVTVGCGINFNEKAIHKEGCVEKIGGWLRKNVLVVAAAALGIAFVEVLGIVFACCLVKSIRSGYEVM

Isotype Control 1 (antibody) showed an HEK293 (S/N), MFI of antibody over wells with no antibody of 1.4. The value for Isotype Control 2 (antibody) was 1.5.
